Patent US6548066B1, “Immunogenic compositions to the CCK-B/gastrin receptor and methods for the treatment of tumors” (Aphton Corporation, priority 1997, dated 2003)

Key:
[1] = test system: affinity purified anti-GRP1 Ab binding to GRP1-Ser-BSA; assay: Inhibition ELISA, specificity of affinity purified anti-GRP1 antibodies; set-up: species or system rabbit; conditions: anti-GRP1 Ab 10 ng/ml; inhibitor 1:10 dilution series
Method: The following experiments were performed to establish the specificity of antibodies raised in rabbits against the GRP1-DT peptide containing Ser spacer described Example 1 using Method B. A series of tests were conducted to assess the specificity of rabbit antibodies induced by immunization with the GRP1-DT and affinity purified by immunoadsorption over a GRP1-Ser Sepharose column.
An inhibition ELISA was used to assess the specificity of the affinity purified antibodies for GRP1-Ser peptide. The assays were run as follows: GRP1-Ser-BSA conjugate was coated onto 96 well plates (Immulon U bottom) by overnight incubation of 50 μl of a 2 μg/ml solution of conjugate in glycine buffer (0.1M, pH=9.5) at 4° C. Affinity purified anti-GRP1 Ab (at a final concentration of 10 ng/ml) was combined with various inhibitors (in 1:10 dilution series) and incubated for 1 hour at room temperature. The inhibitors included GRP1-Ser, GRP1 EPT, Ser, human gastrin 17(1-9)-Ser spacer (hG17(9)-Ser), GRP1 EPT+Ser, and buffer (no inhibitor). Incubation buffer consisted of PBS+0.5% BSA+0.05% Tween 20+0.02% NaN3. Subsequent steps used the same buffer without BSA. The 96 well plates were washed free of nonbound GRP1-Ser-BSA, and the Ab+inhibitor mixtures were added (50 μl/well). After 1 hour, the plates were washed and a goat anti-rabbit Ig (H+L) alkaline phosphatase conjugate (Zymed) was added (1:2000 dilution). […] Following a 60 minute incubation, absorbance was measured on a MRX reader (Dynatech Laboratories). Samples were run in duplicate, and means were calculated for each concentration. Background binding (established with affinity purified rabbit anti-GnRH antibodies) was subtracted from all values, and the % Inhibition relative to no inhibitor added (anti-GRP1 Ab+buffer) was calculated for each inhibitor tested: % Inhibition=(100)(1−((Auninhibited−Ainhibited)/Auninhibited), where A=Absorbance. The results are shown in FIG. 4.

[2] = molecular target: T1, gastrin-receptor expressed by AR42J cells (Rattus norvegicus, UniProt P30553); assay: Immunofluorescence binding of antibodies to AR42J cells; conditions: peptide inhibitor 1.0 mg/ml; antibody 100 μg/ml
T1 construct: host or cells: AR42J rat pancreatic adenocarcinoma cells
T1 sequence (P30553 1-452): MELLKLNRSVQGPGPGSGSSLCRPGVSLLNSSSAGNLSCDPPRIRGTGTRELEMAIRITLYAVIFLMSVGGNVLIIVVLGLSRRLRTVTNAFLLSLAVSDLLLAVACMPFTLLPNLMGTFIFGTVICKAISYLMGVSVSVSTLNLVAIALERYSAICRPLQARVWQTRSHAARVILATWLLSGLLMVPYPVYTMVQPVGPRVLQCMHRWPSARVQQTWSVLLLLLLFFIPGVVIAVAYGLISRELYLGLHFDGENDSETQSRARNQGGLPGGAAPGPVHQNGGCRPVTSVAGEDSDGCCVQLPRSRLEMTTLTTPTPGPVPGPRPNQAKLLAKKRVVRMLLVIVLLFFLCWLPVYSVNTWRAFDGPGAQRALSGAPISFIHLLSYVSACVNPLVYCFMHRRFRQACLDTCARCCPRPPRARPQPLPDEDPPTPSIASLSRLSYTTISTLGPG
Method: Binding of the GRP1-Ser specific antibodies to AR42J cells was assessed by immunofluorescence. AR42J cells were grown as in the previous Examples and harvested with cell scrapers from 175 cm^2 T-flasks and washed twice with buffer (PBS with 0.02% NaN3) by centrinugation (400×g for 7 min). The cells were kept at 0-4° C. for all manipulations. A single cell suspension was prepared in buffer, and the cell concentration was adjusted to 10^6 cells/ml. The cell suspension was added to 1.5 ml microfuge tubes (1 ml/tube). The cells were pelleted by centrifugation and supernatants were aspirated. The cells were resuspended in buffer (0.1 ml/tube) containing peptide inhibitors (1.0 mg/ml). The inhibitors included GRP1-Ser, GnRH, hG17(9)-Ser and buffer (no inhibitor). Antibodies, including the rabbit anti-GRP1-Ser (100 μg/ml), affinity purified rabbit anti-DT (negative control, 100 μg/ml), mouse anti-AR42J antiserum (positive control, 1:100 dilution, heat inactivated) or normal mouse serum were added to the appropriate tubes and the contents were mixed. The cells were incubated for 1 hour, with occasional mixing. […] Fluorescence was scored on a scale of 0 to 4, with 0 representing background fluorescence (obtained with the normal mouse serum) and 4 representing maximal fluorescence (obtained with the mouse anti-AR42J positive control antiserum).

[3] = molecular target: T2, CCK-B/gastrin-receptor on AR42J cells (Rattus norvegicus, UniProt P30553); assay: Radioligand (125I-hG17) binding inhibition on AR42J cells
T2 construct: host or cells: AR42J rat pancreatic adenocarcinoma cells
T2 sequence (P30553 1-452): T1 sequence (P30553 1-452)
Method: AR42J tumor cells (European Collection of Animal Cell cultures, Porton Down, UK) are derived from a rat pancreatic adenocarcinoma and are known to have well characterized CCK-B/gastrin-receptors. Thus AR42J were tested to confirm the expression of CCK-B/gastrin-receptor and specificity of the receptor for hH17 by radioligand inhibition. AR42J cells were cultured at 37° C. with 7% CO2 in complete RPMI 1640 (Sigma) supplemented with 10% FCS (Gemini Bioproducts), 2 mM glutamine (JRH Biosciences), 1 mM sodium pyruvate (JRH B.) and 50 μg/ml gentamicin (Gemini Bioproducts). The cells were harvested from 175 cm^2 T-flasks (Falcon Plastics) with PBS containing 0.25% EDTA, then washed twice with PBS (no EDTA) by centrifugation (400×g for 10 min). The cells were kept at 0-4° C. for all manipulations. A single cell suspension was prepared in buffer, and the cell concentration was adjusted to 10^6 cells/ml. Aliquots of 1 ml of cell suspension were added to 12×75 mm culture tubes, then the cells were centrifuged and the supernatants discarded. The cells were resuspended in PBS (0.1 ml/tube) containing human G17 (hG17), gonadotropin releasing hormone (GnRH), or no peptide. The peptide concentrations were 1.0 ng/ml, 100 ng/ml and 10 μg/ml. An aliquot of 0.1 ml of ^125I-hG17 (NEN), containing approximately 26,300 CPM (specific activity, 2200 Ci/mmol), was added to each tube. The tubes were vortexed, then incubated for 15 minutes. The cells were washed twice with PBS, then counted in a γ counter (Wallac). Samples were run in duplicate. Background counts were subtracted, then the % inhibition of ^125I-hG17 binding by each inhibitor was calculated using the equation: % Inhibition=(100)(1−((CPMuninhibited−CPMinhibited)/CPMuninhibited).

MC26 mouse colon tumor = conditions: treated animals; 25 days in the control animals; cited from earlier work

Row | Molecule | inhibition of antibody binding to GRP1-Ser-BSA [1] | inhibition of anti-GRP1-Ser antibody binding to AR42J cells [2] | other results
1 | hG17(9)-Ser: amino-terminal nine residues of hG17 followed by the Ser spacer (QGPWLEEEESSPPPPPC) | No inhibition | failed to inhibit | –
2 | GnRH: gonadotropin releasing hormone | – | failed to inhibit | inhibition of 125I-hG17 binding to AR42J cells ([3]; 100 pg, considered to be nonspecific): 6%; inhibition of 125I-hG17 binding to AR42J cells ([3]; two highest concentrations tested): no inhibition
3 | hG17: human G17, heptadecagastrin | – | – | inhibition of 125I-hG17 binding to AR42J cells ([3]; 1 μg per tube, highest concentration tested): 32%
4 | CCCN(CCC)C(=O)C(CCC(=O)O)NC(=O)c1ccccc1 (stereo not drawn) [proglumide] | – | – | survival of xenograft mice bearing MC26 (MC26 mouse colon tumor): 39 days
5 | SSPPPPC [Ser spacer] | No inhibition | – | –
6 | KLNRSVQGTGPGPGASL [GRP1 EPT] | Approximately 60% | – | –
